B1: acrylodan-labeled PNKP (PNKP^WFX402-AC) (enzyme)
chain: not shown
modifications: acrylodan (6-acryloyl-2-dimethylaminonaphthalene, AC) label, site not stated
B2: His-XRCC1^161–406 (domain or fragment)
chain: PSQKVTVTKLGQFRVKEEDESANSLRPGALFFSRINKTSPVTASDPAGPSYAAATLQASSAASSASPVSRAIGSTSKPQESPKGKRKLDLNQEEKKTPSKPPAQLSPSVPKRPKLPAPTRTPATAPVPARAQGAVTGKPRGEGTEPRRPRAGPEELGKILQGVVVVLSGFQNPFRSELRDKALELGAKYRPDWTRDSTHLICAFANTPKYSQVLGLGGRIVRKEWVLDCHRMRRRLPSQRYLMAGP

Experiment [1] addresses T1, full-length XRCC1-His (recombinant, from E. coli) (human, UniProt P18887 1-633).
T1 construct: XRCC1, human, full length, not phosphorylated (made in E. coli); also called wild-type XRCC1; X-ray repair cross-complementing 1; source: E. coli (pET16b-XH), purified
Nature of the experiment: other fluorescence titration; quenching of acrylodan fluorescence of PNKP-AC (excitation 380 nm, emission 485-490 nm) by added XRCC1 protein; 25 °C; PNKP-AC 20 nM with full-length XRCC1-His, 80 nM with His-XRCC1^161–406 and in the emission scans with His-XRCC1^FFF; nonlinear regression, unimodal binding. The conditions noted are these: both partners purified.

The target of experiment [2] is B1. The experiment is described as above. The conditions noted are these: both partners purified.

T1 sequence (P18887 whole entry): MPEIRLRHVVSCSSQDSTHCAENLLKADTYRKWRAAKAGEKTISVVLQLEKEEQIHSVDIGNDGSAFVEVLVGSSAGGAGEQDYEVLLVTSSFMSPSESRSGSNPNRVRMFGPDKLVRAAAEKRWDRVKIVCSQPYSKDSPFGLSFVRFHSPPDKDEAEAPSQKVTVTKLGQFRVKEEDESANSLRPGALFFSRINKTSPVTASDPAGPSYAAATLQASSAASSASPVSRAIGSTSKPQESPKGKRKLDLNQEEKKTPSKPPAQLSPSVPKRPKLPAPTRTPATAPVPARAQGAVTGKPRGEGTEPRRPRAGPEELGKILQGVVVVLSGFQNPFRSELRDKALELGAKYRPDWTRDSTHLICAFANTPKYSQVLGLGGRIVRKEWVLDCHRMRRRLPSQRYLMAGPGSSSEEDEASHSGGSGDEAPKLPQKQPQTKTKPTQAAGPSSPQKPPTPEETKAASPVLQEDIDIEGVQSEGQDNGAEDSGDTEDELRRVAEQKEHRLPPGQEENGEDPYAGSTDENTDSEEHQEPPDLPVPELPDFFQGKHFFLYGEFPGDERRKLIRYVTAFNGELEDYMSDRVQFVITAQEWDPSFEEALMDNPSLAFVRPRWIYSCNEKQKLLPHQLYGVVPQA

In general, Kd refers to the free concentration of one partner at which half of the binding sites on the other are occupied at equilibrium, for simple one-to-one binding. As to B1, the Kd in experiment [1] is about 30 nM.

Take B2: the Kd in experiment [2] was about 95 nM.

The values are drawn from paper PMC5625035, “The Rev1 interacting region (RIR) motif in the scaffold protein XRCC1 mediates a low-affinity interaction with polynucleotide kinase/phosphatase (PNKP) during DNA single-strand break repair” (The Journal of Biological Chemistry, 2017).
